In US20170190753A1 (LABORATOIRE FRANCAIS DU FRACTIONNEMENT ET DES …, published 2017):

Molecular target: C3 convertase complex (UniProt P01024 23-1663; P00751 260-764)
Assay: cell-based or functional assay
For C3 convertase activity % of the control in this document: test concentration or dose not given here.

Sequence of C3 convertase complex (P01024 23-1663, chain 1 of 2): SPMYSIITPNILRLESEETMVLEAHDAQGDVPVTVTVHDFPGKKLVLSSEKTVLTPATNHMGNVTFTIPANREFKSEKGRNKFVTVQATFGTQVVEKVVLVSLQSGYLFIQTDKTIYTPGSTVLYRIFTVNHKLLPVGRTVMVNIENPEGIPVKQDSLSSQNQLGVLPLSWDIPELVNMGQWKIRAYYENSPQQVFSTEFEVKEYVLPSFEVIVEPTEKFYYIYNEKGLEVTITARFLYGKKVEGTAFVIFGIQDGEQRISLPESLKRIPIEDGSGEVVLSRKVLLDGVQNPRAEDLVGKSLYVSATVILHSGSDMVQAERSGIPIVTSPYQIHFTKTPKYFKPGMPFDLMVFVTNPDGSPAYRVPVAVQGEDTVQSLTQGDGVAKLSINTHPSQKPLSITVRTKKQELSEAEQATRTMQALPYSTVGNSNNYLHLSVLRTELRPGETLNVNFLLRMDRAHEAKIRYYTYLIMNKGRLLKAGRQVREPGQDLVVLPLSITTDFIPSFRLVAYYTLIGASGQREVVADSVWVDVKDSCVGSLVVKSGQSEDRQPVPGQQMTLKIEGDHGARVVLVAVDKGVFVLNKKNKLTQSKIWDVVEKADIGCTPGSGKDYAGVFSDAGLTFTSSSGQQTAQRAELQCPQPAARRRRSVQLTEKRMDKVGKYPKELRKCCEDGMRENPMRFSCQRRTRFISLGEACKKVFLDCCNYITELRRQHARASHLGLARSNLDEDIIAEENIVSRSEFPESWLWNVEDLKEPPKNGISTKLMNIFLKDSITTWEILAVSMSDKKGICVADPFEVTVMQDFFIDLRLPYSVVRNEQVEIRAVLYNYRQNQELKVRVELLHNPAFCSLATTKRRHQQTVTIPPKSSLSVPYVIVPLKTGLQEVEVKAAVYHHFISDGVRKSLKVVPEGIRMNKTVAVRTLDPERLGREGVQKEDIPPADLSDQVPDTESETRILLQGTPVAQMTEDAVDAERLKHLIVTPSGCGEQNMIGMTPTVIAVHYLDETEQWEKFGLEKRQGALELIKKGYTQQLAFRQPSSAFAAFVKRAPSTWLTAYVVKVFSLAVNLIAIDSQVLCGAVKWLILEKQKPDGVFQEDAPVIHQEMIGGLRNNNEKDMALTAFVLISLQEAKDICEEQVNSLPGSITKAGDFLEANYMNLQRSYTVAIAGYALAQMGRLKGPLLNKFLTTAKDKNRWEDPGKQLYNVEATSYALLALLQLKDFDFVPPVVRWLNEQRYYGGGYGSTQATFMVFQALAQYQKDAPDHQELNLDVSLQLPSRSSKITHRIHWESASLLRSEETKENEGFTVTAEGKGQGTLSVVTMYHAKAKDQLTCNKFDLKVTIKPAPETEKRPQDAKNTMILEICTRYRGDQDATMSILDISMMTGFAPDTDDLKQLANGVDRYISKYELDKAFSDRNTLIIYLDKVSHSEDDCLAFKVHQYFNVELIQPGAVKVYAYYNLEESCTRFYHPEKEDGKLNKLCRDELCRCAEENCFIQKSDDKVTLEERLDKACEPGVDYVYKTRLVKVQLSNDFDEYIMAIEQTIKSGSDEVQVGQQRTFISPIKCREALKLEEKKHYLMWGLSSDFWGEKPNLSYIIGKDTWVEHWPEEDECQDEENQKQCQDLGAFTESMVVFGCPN
Sequence of C3 convertase complex (P00751 260-764, chain 2 of 2): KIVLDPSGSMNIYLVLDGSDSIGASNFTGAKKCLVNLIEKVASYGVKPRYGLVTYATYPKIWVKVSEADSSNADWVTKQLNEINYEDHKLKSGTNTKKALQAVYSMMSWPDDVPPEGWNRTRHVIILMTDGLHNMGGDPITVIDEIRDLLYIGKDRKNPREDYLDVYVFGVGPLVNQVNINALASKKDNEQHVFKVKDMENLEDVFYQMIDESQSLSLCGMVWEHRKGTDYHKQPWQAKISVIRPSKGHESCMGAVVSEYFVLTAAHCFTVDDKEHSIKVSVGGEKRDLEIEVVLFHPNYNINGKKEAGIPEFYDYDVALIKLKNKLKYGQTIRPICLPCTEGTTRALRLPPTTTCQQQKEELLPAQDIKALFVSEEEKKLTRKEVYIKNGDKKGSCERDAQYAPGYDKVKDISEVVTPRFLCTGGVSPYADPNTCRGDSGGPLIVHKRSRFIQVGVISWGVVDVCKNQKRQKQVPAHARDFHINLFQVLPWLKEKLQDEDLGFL

B1: pCEP4-1NT9-12CT20 (other)
chain: EDCNELPPRRNTEILTGSWSDQTYPEGTQAIYKCRPGYRSLGNVIMVCRKGEWVALNPLRKCQKRPCGHPGDTPFGTFTLTGGNVFEYGVKAVYTCNEGYQLLGEINYRECDTDGWTNDIPICEVVKCLPVTAPENGKIVSSAMEPDREYHFGQAVRFVCNSGYKIEGDEEMHCSDDGFWSKEKPKCVEISCKSPDVINGSPISQKIIYKENERFQYKCNMGYEYSERGDAVCTESGWRPLPSCEEKSCDNPYIPNGDYSPLRIKHRTGDEITYQCRNGFYPATRGNTAKCTSTGWIPAPRCTLKPCDYPDIKHGGLYHENMRRPYFPVAVGKYYSYYCDEHFETPSGSYWDHIHCTQDGWSPAVPCLRKCYFPYLENGYNQNHGRKFVQGKSIDVACHPGYALPKAQTTVTCMENGWSPTPRCIRVKTCSKSSIDIENGFISESQYTYALKEKAKYQCKLGYVTADGETSGSITCGKDGWSAQPTCIKSCDIPVFMNARTKNDFTWFKLNDTLDYECHDGYESNTGSTTGSIVCGYNGWSDLPICYEREGASGCGDIPELEHGWAQLSSPPYYYGDSVEFNCSESFTMIGHRSITCIHGVWTQLPQCVAIDKLKKCKSSNLIILEEHLKNKKEFDHNSNIRYRCRGKEGWIHTVCINGRWDPEVNCSMAQIQLCPPPPQIPNSHNMTTTLNYRDGEKVSVLCQENYLIQEGEEITCKDGRWQSIPLCVEKIPCSQPPQIEHGTINSSRSSQESYAHGTKLSYTCEGGFRISEENETTCYMGKWSSPPQCEGLPCKSPPEISHGVVAHMSDSYQYGEEVTYKCFEGFGIDGPAIAKCLGEKWSHPPSCIKTDCLSLPSFENAIPMGEKKDVYKAGEQVTYTCATYYKMDGASNVTCINSRWTGRPTCRDTSCVNPPTVQNAYIVSRQMSKYPSGERVRYQCRSPYEMFGDEEVMCLNGNWTEPPQCKDSTGKCGPPPPIDNGDITSFPLSVYAPASSVEYQCQNLYQLEGNKRITCRNGQWSEPPKCLHPCVISREIMENYNIALRWTAKQKLYSRTGESVEFVCKRGYRLSSRSHTLRTTCWDGKLEYPTCAKRGGSGHHHHHH
C3 convertase activity % of the control: 30 % of the control | C3 convertase activity IC50: 0.307 µg/mL

B2: pCEP4-1NT4-8CT20 (other)
chain: EDCNELPPRRNTEILTGSWSDQTYPEGTQAIYKCRPGYRSLGNVIMVCRKGEWVALNPLRKCQKRPCGHPGDTPFGTFTLTGGNVFEYGVKAVYTCNEGYQLLGEINYRECDTDGWTNDIPICEVVKCLPVTAPENGKIVSSAMEPDREYHFGQAVRFVCNSGYKIEGDEEMHCSDDGFWSKEKPKCVEISCKSPDVINGSPISQKIIYKENERFQYKCNMGYEYSERGDAVCTESGWRPLPSCEEKSGASGCSKSSIDIENGFISESQYTYALKEKAKYQCKLGYVTADGETSGSITCGKDGWSAQPTCIKSCDIPVFMNARTKNDFTWFKLNDTLDYECHDGYESNTGSTTGSIVCGYNGWSDLPICYERECELPKIDVHLVPDRKKDQYKVGEVLKFSCKPGFTIVGPNSVQCYHFGLSPDLPICKEQVQSCGPPPELLNGNVKEKTKEEYGHSEVVEYYCNPRFLMKGPNKIQCVDGEWTTLPVCIVEESTCGDIPELEHGWAQLSSPPYYYGDSVEFNCSESFTMIGHRSITCIHGVWTQLPQCVAIDKLKKCKSSNLIILEEHLKNKKEFDHNSNIRYRCRGKEGWIHTVCINGRWDPEVNCSMAQIQLCPPPPQIPNSHNMTTTLNYRDGEKVSVLCQENYLIQEGEEITCKDGRWQSIPLCVEKIPCSQPPQIEHGTINSSRSSQESYAHGTKLSYTCEGGFRISEENETTCYMGKWSSPPQCEGLPCKSPPEISHGVVAHMSDSYQYGEEVTYKCFEGFGIDGPAIAKCLGEKWSHPPSCIKTDCLSLPSFENAIPMGEKKDVYKAGEQVTYTCATYYKMDGASNVTCINSRWTGRPTCRDTSCVNPPTVQNAYIVSRQMSKYPSGERVRYQCRSPYEMFGDEEVMCLNGNWTEPPQCKDSTGKCGPPPPIDNGDITSFPLSVYAPASSVEYQCQNLYQLEGNKRITCRNGQWSEPPKCLHPCVISREIMENYNIALRWTAKQKLYSRTGESVEFVCKRGYRLSSRSHTLRTTCWDGKLEYPTCAKRGGSGHHHHHH
C3 convertase activity % of the control: 42 % of the control | C3 convertase activity IC50: 0.228 µg/mL

B3: pCEP4-1NT8-13CT20 (other)
chain: EDCNELPPRRNTEILTGSWSDQTYPEGTQAIYKCRPGYRSLGNVIMVCRKGEWVALNPLRKCQKRPCGHPGDTPFGTFTLTGGNVFEYGVKAVYTCNEGYQLLGEINYRECDTDGWTNDIPICEVVKCLPVTAPENGKIVSSAMEPDREYHFGQAVRFVCNSGYKIEGDEEMHCSDDGFWSKEKPKCVEISCKSPDVINGSPISQKIIYKENERFQYKCNMGYEYSERGDAVCTESGWRPLPSCEEKSCDNPYIPNGDYSPLRIKHRTGDEITYQCRNGFYPATRGNTAKCTSTGWIPAPRCTLKPCDYPDIKHGGLYHENMRRPYFPVAVGKYYSYYCDEHFETPSGSYWDHIHCTQDGWSPAVPCLRKCYFPYLENGYNQNHGRKFVQGKSIDVACHPGYALPKAQTTVTCMENGWSPTPRCIRVKTCSKSSIDIENGFISESQYTYALKEKAKYQCKLGYVTADGETSGSITCGKDGWSAQPTCIKSGASGCKSSNLIILEEHLKNKKEFDHNSNIRYRCRGKEGWIHTVCINGRWDPEVNCSMAQIQLCPPPPQIPNSHNMTTTLNYRDGEKVSVLCQENYLIQEGEEITCKDGRWQSIPLCVEKIPCSQPPQIEHGTINSSRSSQESYAHGTKLSYTCEGGFRISEENETTCYMGKWSSPPQCEGLPCKSPPEISHGVVAHMSDSYQYGEEVTYKCFEGFGIDGPAIAKCLGEKWSHPPSCIKTDCLSLPSFENAIPMGEKKDVYKAGEQVTYTCATYYKMDGASNVTCINSRWTGRPTCRDTSCVNPPTVQNAYIVSRQMSKYPSGERVRYQCRSPYEMFGDEEVMCLNGNWTEPPQCKDSTGKCGPPPPIDNGDITSFPLSVYAPASSVEYQCQNLYQLEGNKRITCRNGQWSEPPKCLHPCVISREIMENYNIALRWTAKQKLYSRTGESVEFVCKRGYRLSSRSHTLRTTCWDGKLEYPTCAKRGGSGHHHHHH
C3 convertase activity % of the control: 30 % of the control | C3 convertase activity IC50: 0.402 µg/mL

B4: pCEP4-1NT13-14CT20 (other)
chain: EDCNELPPRRNTEILTGSWSDQTYPEGTQAIYKCRPGYRSLGNVIMVCRKGEWVALNPLRKCQKRPCGHPGDTPFGTFTLTGGNVFEYGVKAVYTCNEGYQLLGEINYRECDTDGWTNDIPICEVVKCLPVTAPENGKIVSSAMEPDREYHFGQAVRFVCNSGYKIEGDEEMHCSDDGFWSKEKPKCVEISCKSPDVINGSPISQKIIYKENERFQYKCNMGYEYSERGDAVCTESGWRPLPSCEEKSCDNPYIPNGDYSPLRIKHRTGDEITYQCRNGFYPATRGNTAKCTSTGWIPAPRCTLKPCDYPDIKHGGLYHENMRRPYFPVAVGKYYSYYCDEHFETPSGSYWDHIHCTQDGWSPAVPCLRKCYFPYLENGYNQNHGRKFVQGKSIDVACHPGYALPKAQTTVTCMENGWSPTPRCIRVKTCSKSSIDIENGFISESQYTYALKEKAKYQCKLGYVTADGETSGSITCGKDGWSAQPTCIKSCDIPVFMNARTKNDFTWFKLNDTLDYECHDGYESNTGSTTGSIVCGYNGWSDLPICYERECELPKIDVHLVPDRKKDQYKVGEVLKFSCKPGFTIVGPNSVQCYHFGLSPDLPICKEQVQSCGPPPELLNGNVKEKTKEEYGHSEVVEYYCNPRFLMKGPNKIQCVDGEWTTLPVCIVEESTCGDIPELEHGWAQLSSPPYYYGDSVEFNCSESFTMIGHRSITCIHGVWTQLPQCVAIDKLKKCKSSNLIILEEHLKNKKEFDHNSNIRYRCRGKEGWIHTVCINGRWDPEVNCSMAQIQLGASGCPPPPQIPNSHNMTTTLNYRDGEKVSVLCQENYLIQEGEEITCKDGRWQSIPLCVEKIPCSQPPQIEHGTINSSRSSQESYAHGTKLSYTCEGGFRISEENETTCYMGKWSSPPQCEGLPCKSPPEISHGVVAHMSDSYQYGEEVTYKCFEGFGIDGPAIAKCLGEKWSHPPSCIKTDCLSLPSFENAIPMGEKKDVYKAGEQVTYTCATYYKMDGASNVTCINSRWTGRPTCRDTSCVNPPTVQNAYIVSRQMSKYPSGERVRYQCRSPYEMFGDEEVMCLNGNWTEPPQCKDSTGKCGPPPPIDNGDITSFPLSVYAPASSVEYQCQNLYQLEGNKRITCRNGQWSEPPKCLHPCVISREIMENYNIALRWTAKQKLYSRTGESVEFVCKRGYRLSSRSHTLRTTCWDGKLEYPTCAKRGGSGHHHHHH
C3 convertase activity % of the control: 45 % of the control | C3 convertase activity IC50: 0.776 µg/mL

B5: pCEP4-1NT4-10CT20 (other)
chain: EDCNELPPRRNTEILTGSWSDQTYPEGTQAIYKCRPGYRSLGNVIMVCRKGEWVALNPLRKCQKRPCGHPGDTPFGTFTLTGGNVFEYGVKAVYTCNEGYQLLGEINYRECDTDGWTNDIPICEVVKCLPVTAPENGKIVSSAMEPDREYHFGQAVRFVCNSGYKIEGDEEMHCSDDGFWSKEKPKCVEISCKSPDVINGSPISQKIIYKENERFQYKCNMGYEYSERGDAVCTESGWRPLPSCEEKSGASGCELPKIDVHLVPDRKKDQYKVGEVLKFSCKPGFTIVGPNSVQCYHFGLSPDLPICKEQVQSCGPPPELLNGNVKEKTKEEYGHSEVVEYYCNPRFLMKGPNKIQCVDGEWTTLPVCIVEESTCGDIPELEHGWAQLSSPPYYYGDSVEFNCSESFTMIGHRSITCIHGVWTQLPQCVAIDKLKKCKSSNLIILEEHLKNKKEFDHNSNIRYRCRGKEGWIHTVCINGRWDPEVNCSMAQIQLCPPPPQIPNSHNMTTTLNYRDGEKVSVLCQENYLIQEGEEITCKDGRWQSIPLCVEKIPCSQPPQIEHGTINSSRSSQESYAHGTKLSYTCEGGFRISEENETTCYMGKWSSPPQCEGLPCKSPPEISHGVVAHMSDSYQYGEEVTYKCFEGFGIDGPAIAKCLGEKWSHPPSCIKTDCLSLPSFENAIPMGEKKDVYKAGEQVTYTCATYYKMDGASNVTCINSRWTGRPTCRDTSCVNPPTVQNAYIVSRQMSKYPSGERVRYQCRSPYEMFGDEEVMCLNGNWTEPPQCKDSTGKCGPPPPIDNGDITSFPLSVYAPASSVEYQCQNLYQLEGNKRITCRNGQWSEPPKCLHPCVISREIMENYNIALRWTAKQKLYSRTGESVEFVCKRGYRLSSRSHTLRTTCWDGKLEYPTCAKRGGSGHHHHHH
C3 convertase activity % of the control: 38 % of the control | C3 convertase activity IC50: 0.244 µg/mL
